Measurements from publication PMC10958042.

B1: ATGL (PNPLA2, patatin-like phospholipase domain-containing protein 2), human, full length / CGI-58 (ABHD5, 1-acylglycerol-3-phosphate O-acyltransferase ABHD5), human (parent)
chain 1: MFPREKTWNISFAGCGFLGVYYVGVASCLREHAPFLVANATHIYGASAGALTATALVTGVCLGEAGAKFIEVSKEARKRFLGPLHPSFNLVKIIRSFLLKVLPADSHEHASGRLGISLTRVSDGENVIISHFNSKDELIQANVCSGFIPVYCGLIPPSLQGVRYVDGGISDNLPLYELKNTITVSPFSGESDICPQDSSTNIHELRVTNTSIQFNLRNLYRLSKALFPPEPLVLREMCKQGYRDGLRFLQRNGLLNRPNPLLALPPARPHGPEDKDQAVESAQAEDYSQLPGEDHILEHLPARLNEALLEACVEPTDLLTTLSNMLPVRLATAMMVPYTLPLESALSFTIRLLEWLPDVPEDIRWMKEQTGSICQYLVMRAKRKLGRHLPSRLPEQVELRRVQSLPSVPLSCAAYREALPGWMRNNLSLGDALAKWEECQRQLLLGLFCTNVAFPPEALRMRAPADPAPAPADPASPQHQLAGPAPLLSTPAPEARPVIGALGL
chain 2: MAAEEEEVDSADTGERSGWLTGWLPTWCPTSISHLKEAEEKMLKCVPCTYKKEPVRISNGNKIWTLKFSHNISNKTPLVLLHGFGGGLGLWALNFGDLCTNRPVYAFDLLGFGRSSRPRFDSDAEEVENQFVESIEEWRCALGLDKMILLGHNLGGFLAAAYSLKYPSRVNHLILVEPWGFPERPDLADQDRPIPVWIRALGAALTPFNPLAGLRIAGPFGLSLVQRLRPDFKRKYSSMFEDDTVTEYIYHCNVQTPSGETAFKNMTIPYGWAKRPMLQRIGKMHPDIPVSVIFGARSCIDGNSGTSIQSLRPHSYVKTIAILGAGHYVYADQPEEFNQKVKEICDTVD
B2: ATGL (PNPLA2, patatin-like phospholipase domain-containing protein 2), human, full length / perilipin-1, mouse (mPlin1) (parent)
chain 1: B1 chain 1
chain 2: MSMNKGPTLLDGDLPEQENVLQRVLQLPVVSGTCECFQKTYNSTKEAHPLVASVCNAYEKGVQGASNLAAWSMEPVVRRLSTQFTAANELACRGLDHLEEKIPALQYPPEKIASELKGTISTRLRSARNSISVPIASTSDKVLGATLAGCELALGMAKETAEYAANTRVGRLASGGADLALGSIEKVVEFLLPPDKESAPSSGRQRTQKAPKAKPSLVRRVSTLANTLSRHTMQTTAWALKQGHSLAMWIPGVAPLSSLAQWGASAAMQVVSRRQSEVRVPWLHNLAASQDESHDDQTDTEGEETDDEEEEEESEAEENVLREVTALPNPRGLLGGVVHTVQNTLRNTISAVTWAPAAVLGTVGRILHLTPAQAVSSTKGRAMSLSDALKGVTDNVVDTVVHYVPLPRLSLMEPESEFRDIDNPSAEAERKGSGARPASPESTPRPGQPRGSLRSVRGLSAPSCPGLDDKTEASARPGFLAMPREKPARRVSDSFFRPSVMEPILGRAQYSQLRKKS

Variants of: B1
Experiment: LUMIER: Protein A-ATGL variant and firefly luciferase-partner co-expressed in HEK293T, lysates immunoprecipitated on IgG-coated plates, co-precipitated partner measured as luciferase luminescence
Settings: with CGI-58 (ABHD5, 1-acylglycerol-3-phosphate O-acyltransferase ABHD5), transient co-transfection, IgG-coated LUMITRAC plates, 2 h at 4 °C, three PBS washes, Bright-Glo luciferase reagent, triplicates per assay, two …, parent: 0.32, not graded, scale: log2 fold change of co-immunoprecipitated luminescence relative to wild-type ATGL within each experiment
chain 1 I70K gave a screen value of -0.355.
Variant chain 1 K92L has a screen value of -0.67.
For chain 1 K275A, the screen value was -0.731.
chain 1 L62A was tested, and the screen value was -0.556.
chain 1 L62K gave a screen value of -0.614.
chain 1 L102K showed a screen value of -0.532.
Work on chain 1 L159A yielded a screen value of -0.737.
chain 1 L178A showed a screen value of -0.598.
For chain 1 L261E, the screen value was -1.2.
chain 1 N39E showed a screen value of -0.3.
In the case of chain 1 P86K, the screen value is reported as -0.174.
With chain 1 P103K the screen value was -0.089.
chain 1 P156K showed a screen value of -0.794.
In the case of chain 1 P258L, the screen value is reported as -1.23.
chain 1 Q140A was tested, and the screen value was 0.428.
Work on chain 1 Q140K yielded a screen value of -0.444.
chain 1 Q396A showed a screen value of -0.502.
chain 1 R95K showed a screen value of 0.177.
chain 1 R95L showed a screen value of -0.121.
chain 1 R113K gave a screen value of 0.189.
In the case of chain 1 R113L, the screen value is reported as -0.625.
Variant chain 1 R163K has a screen value of 0.351.
chain 1 R329E showed a screen value of -0.412.
chain 1 R351L was tested, and the screen value was -0.948.
Work on chain 1 S87A yielded a screen value of -0.244.
chain 1 S87E was tested, and the screen value was -0.0233.
chain 1 S106K showed a screen value of -0.182.
With chain 1 S158A the screen value was 0.402.
In the case of chain 1 S158E, the screen value is reported as -0.0835.
chain 1 T41A gave a screen value of 0.269.
chain 1 V127L showed a screen value of -0.449.
chain 1 V328A was tested, and the screen value was -0.513.
With chain 1 Y415A the screen value was 0.149.

Same assay, conditions: with CGI-58 (ABHD5, 1-acylglycerol-3-phosphate O-acyltransferase ABHD5), transient co-transfection, IgG-coated LUMITRAC plates, 2 h at 4 °C, three PBS washes, Bright-Glo luciferase reagent, triplicates per assay, two …, parent: 0.45, not graded, scale: log2 fold change of co-immunoprecipitated luminescence relative to wild-type ATGL within each experiment
chain 1 I70K gave a screen value of -0.676.
With chain 1 K92L the screen value was -0.328.
Variant chain 1 K275A has a screen value of -0.473.
Variant chain 1 L62A has a screen value of -0.528.
Work on chain 1 L62K yielded a screen value of -0.447.
chain 1 L102K gave a screen value of -0.83.
chain 1 L159A showed a screen value of -0.542.
With chain 1 L178A the screen value was -0.392.
With chain 1 L261E the screen value was -0.989.
With chain 1 N39E the screen value was -0.215.
In the case of chain 1 P86K, the screen value is reported as -0.669.
chain 1 P103K was tested, and the screen value was 0.0251.
Variant chain 1 P156K has a screen value of -0.596.
Work on chain 1 P258L yielded a screen value of -1.16.
In the case of chain 1 Q140A, the screen value is reported as 0.0685.
In the case of chain 1 Q140K, the screen value is reported as 0.322.
chain 1 Q396A gave a screen value of -0.818.
In the case of chain 1 R95K, the screen value is reported as -0.0705.
Work on chain 1 R95L yielded a screen value of -0.396.
chain 1 R113K gave a screen value of 0.534.
Work on chain 1 R113L yielded a screen value of -0.259.
chain 1 R163K gave a screen value of 0.226.
In the case of chain 1 R329E, the screen value is reported as -0.601.
Work on chain 1 R351L yielded a screen value of -1.04.
Work on chain 1 S87A yielded a screen value of -0.0566.
chain 1 S87E was tested, and the screen value was -0.304.
Variant chain 1 S106K has a screen value of -0.557.
In the case of chain 1 S158A, the screen value is reported as 0.00753.
chain 1 S158E gave a screen value of -0.000176.
With chain 1 T41A the screen value was 0.283.
Work on chain 1 V127L yielded a screen value of -0.203.
With chain 1 V328A the screen value was -0.464.
chain 1 Y415A gave a screen value of -0.124.
chain 1 N180L showed a screen value of -0.679.

Same assay, conditions: with CGI-58 (ABHD5, 1-acylglycerol-3-phosphate O-acyltransferase ABHD5), transient co-transfection, IgG-coated LUMITRAC plates, 2 h at 4 °C, three PBS washes, Bright-Glo luciferase reagent, triplicates per assay, two …, parent: 0.32, not graded, value at the no-binding floor (a bound), scale: log2 fold change of co-immunoprecipitated luminescence relative to wild-type ATGL within each experiment
For chain 1 N180L, the screen value was -1.8.

Variants of: B2
Experiment: as above
Settings: with perilipin-1, mouse (mPlin1), transient co-transfection, IgG-coated LUMITRAC plates, 2 h at 4 °C, three PBS washes, Bright-Glo luciferase reagent, triplicates per assay, two …, parent: 0.26, not graded, scale: log2 fold change of co-immunoprecipitated luminescence relative to wild-type ATGL within each experiment
For chain 1 F35E, the screen value was -0.17.
Work on chain 1 S106K yielded a screen value of -0.529.
chain 1 A453E was tested, and the screen value was 0.218.
Work on chain 1 G66L yielded a screen value of -0.803.
chain 1 L62K gave a screen value of 0.457.
chain 1 P156K showed a screen value of -0.552.
chain 1 H109E was tested, and the screen value was -0.442.
In the case of chain 1 S87E, the screen value is reported as -0.527.
In the case of chain 1 R113K, the screen value is reported as -0.0594.
chain 1 Y415A was tested, and the screen value was -0.0219.
chain 1 L261E showed a screen value of -0.624.
Work on chain 1 K92L yielded a screen value of 0.107.
For chain 1 R95K, the screen value was -0.788.
In the case of chain 1 F348E, the screen value is reported as 0.112.
Work on chain 1 F35A yielded a screen value of -0.185.
Variant chain 1 S87A has a screen value of 0.0206.
Variant chain 1 L178A has a screen value of -0.664.
chain 1 N39E showed a screen value of -0.0832.
chain 1 S158A showed a screen value of -0.232.
Work on chain 1 L102K yielded a screen value of -1.19.
chain 1 G16K showed a screen value of 0.265.
chain 1 Q396A showed a screen value of 0.313.
chain 1 R163K showed a screen value of -0.504.

Same assay, conditions: with perilipin-1, mouse (mPlin1), transient co-transfection, IgG-coated LUMITRAC plates, 2 h at 4 °C, three PBS washes, Bright-Glo luciferase reagent, triplicates per assay, two …, parent: -0.37, not graded, scale: log2 fold change of co-immunoprecipitated luminescence relative to wild-type ATGL within each experiment
With chain 1 F35E the screen value was -0.197.
With chain 1 S106K the screen value was -0.667.
chain 1 A453E was tested, and the screen value was 0.0778.
For chain 1 G66L, the screen value was -0.433.
chain 1 L62K gave a screen value of 0.284.
chain 1 P156K was tested, and the screen value was -0.726.
Variant chain 1 H109E has a screen value of -0.386.
Variant chain 1 S87E has a screen value of -0.625.
For chain 1 R113K, the screen value was 0.272.
chain 1 Y415A showed a screen value of -0.00379.
With chain 1 L261E the screen value was -1.14.
chain 1 K92L was tested, and the screen value was 0.166.
chain 1 R95K was tested, and the screen value was -0.635.
chain 1 F348E gave a screen value of -0.626.
Variant chain 1 F35A has a screen value of -0.158.
With chain 1 S87A the screen value was -0.536.
Variant chain 1 N39E has a screen value of -0.558.
With chain 1 S158A the screen value was 0.188.
For chain 1 L102K, the screen value was -0.807.
With chain 1 G16K the screen value was 0.718.
chain 1 Q396A showed a screen value of -0.0639.
In the case of chain 1 R163K, the screen value is reported as -0.582.

Same assay, conditions: with perilipin-1, mouse (mPlin1), transient co-transfection, IgG-coated LUMITRAC plates, 2 h at 4 °C, three PBS washes, Bright-Glo luciferase reagent, triplicates per assay, two …, parent: -0.37, not graded, value at the no-binding floor (a bound), scale: log2 fold change of co-immunoprecipitated luminescence relative to wild-type ATGL within each experiment
chain 1 L178A showed a screen value of -1.6.
